Assay results taken from US7538262B2, “GDC-2 genes conferring herbicide resistance” (Athenix Corporation, priority 2003, dated 2009).

What was measured:
[1] = Assay of GDC-2 acetolactate synthase activity (acetoin colorimetric detection); format: biochemical; settings: 50 mM pyruvate, 1 mM TPP, 10 mM MgCl2, 0.01 mM FAD, pH 7.0, 2 hours at 37° C.
Protocol: Acetolactate synthases are decarboxylating enzymes that condense two pyruvate molecules to form acetolactate with the release of a CO2 moiety from one of the pyruvate substrates. In the detection of the enzymatic reaction described by Pang and Duggleby (Pang and Duggleby (1999) Biochemistry 18:5222-5231), the product acetolactate is converted to acetoin by incubation with 1% H2SO4 for 15 minutes at 60° C. followed by neutralization with KOH. The acetoin is then detected as described by Westerfeld (Westerfeld (1945) J. Biol. Chem.161:495-502), using 0.15% creatine and 1.5% alpha-naphthol (dissolved in 2.5 N NaOH). The red colored reaction product is quantified by absorbance at 525 nm.
Samples containing either 5 μg or 10 μg of GDC-2 were incubated in 50 mM pyruvate, 1 mM […] pyrophosphate, 10 mM MgCl2, 0.01 mM Flavin adenine dinucleotide (FAD), 100 mM potassium phosphate buffer pH 7.0 (total reaction volume of 50 μl) for 2 hours at 37° C. The reaction was stopped by the addition of 1 μl of 50% sulfuric acid (H2SO4) and incubated at 60° C. for 15 minutes. The reaction was neutralized by the addition of 30 μl of 1 N KOH followed by the addition of 10 μl of 1.5% creatine and 10 μl of 15% alpha-napthol dissolved in 2.5 N NaOH. The red colored reaction product was quantified by absorbance at 525 nm.

ΔaroA E. coli = test: Genetic complementation of aroA mutation in E. coli; format: cell-based; settings: ΔaroA E. coli transformed with pAX473; M63 alone
Text: The E. coli aroA gene codes for EPSP synthase, the target enzyme for glyphosate. […] However, genes encoding EPSPS activity can restore the ability to grow […] upon aroA mutant E. coli strains. Thus, a test for genetic complementation of an aroA mutant is a highly sensitive method to test if a gene is capable of functioning as an EPSPS in E. coli. Such tests for gene function by genetic complementation are known in the art.
A deletion of the aroA gene was created in E. coli XL-1 MRF′ (Stratagene) by PCR/recombination methods known in the art and outlined by Datsenko and Wanner, (2000) Proc. Natl. Acad. Sci. USA 97:6640-6645. This system is based on the Red system that allows for chromosomal disruptions of targeted sequences. A large portion (1067 nt of the 1283 nt) of the aroA coding region was disrupted by the engineered deletion.
The ability of an EPSPS to complement the mutant phenotype of ΔaroA was confirmed. Clone pAX482, an E. coli expression vector containing the wild-type E. coli aroA gene, was transformed into ΔaroA, and transformed cells were selected. These cells (containing a functional aroA gene residing on a plasmid) were then plated on LB media, M63, and M63 with amino acid supplements. […]

B1: GDC-2: glyphosate resistance-conferring decarboxylase protein (SEQ ID NO:3), acetolactate synthase homologue from strain ATX6837; purified as 6× His-tagged protein (protein)
chain: MLRSRQASKALRALGQARHFTSTTQPAAVQAPRKVASGQRNQATAATATSAAPNVRATPSPAFNAEEQQQQKHSHVQPLVNPQKSDMDESFIGKTGGEIFHEMMLRQGVKHIFGYPGGAILPVFDAIYNSKHFDFILPRHEQGAGHMAEGYARASGKPGVVLVTSGPGATNVVTPMQDALSDGTPLVVFCGQVPTSAIGSDAFQEADVVGISRACTKWNVMVKNVAELPRRINEAFEIATSGRPGPVLVDLPKDVTAGILRRAIPTETALPALPSAASRAAMESSRKHLEHTIKRVADLVNKAKQPVIYAGQGIIQSEGGPELLKELADKASIPVTTTLQGLGGFDELDEKSLHMLGMHGSAYANMAMQEADLIIALGARFDDRVTLNVAKFAPGARAAAAEKRGGIVHFEVMPKNINKVVQATEAVEGNVGSNLKLLLPEVQAKTMDDRKEWFGKINEWKKKWPLSHYERAERHGLIKPQTLIEELSKLTADRKDKTYIATGVGQHQMWTAQHFRWRHPRSMITSGGLGTMGFGLPAAIGAKVAQPDALVFDIDGDASFGMTLTELATAAQFNIGVKVIVLNNEEQGMVTQWQNLFYEDRYAHTHQVNPDFMKLAESMRVQGRRCVDPEDVVDSLKWLINTDGPALLEVVTDKKVPVLPMVPAGSALHEFLVFDGEKDKKRRELMRERTSGLHG
modifications: 6xHis tag; Fungal isolate from soil sample
notes: purified as 6× His-tagged protein
Absorbance 525 nm (acetolactate synthase activity) ([1]; 5 μg GDC-2): 1.99
Absorbance 525 nm (acetolactate synthase activity) ([1]; 10 μg GDC-2): 3.13
Complementation of the aroA mutation (growth on M63 minimal media lacking aromatic amino acids) (ΔaroA E. coli): not capable of complementing the aroA mutation
